Sequences and labels used below:
B1: anti-E-selectin antibody 0159 chimera (antibody, human IgG1, kappa, V domains shown)
VH: EVQLQQSGAELGKPGTSVKLSCKVSGYNIRSTYMHWVSQRPGKGLEWIGRIDPANGNTIYAEKFKRKATLTADTSSNTAYMQLSQLKSDDRAIYFCAMEVRVSFEYWGQGVMVTVSS
VL: DIQMTQSPSFLSASVGDRVTINCKASQNINKYLDWYQQKLGEGPKLLIYYTNNLHTGIPSRFSGSGSGTDFTLTISSLQPEDVATYFCLQHDSGYTFGAGTKLELKR
notes: rat VH/VL on effector-null human IgG1 and human kappa
B2: anti-E-selectin antibody 0170 chimera (antibody, human IgG1, kappa, V domains shown)
VH: EVQLQQSGAELGKPGTSVKLSCKVSGYSIRSTYMHWVNQRPGKGLEWVGRIDPANGNTIYAERFKNKATLTADTSSNTAYMQLSQLKSDDTAIYFCAVEILGIFDYWGQGVMVTVSS
VL: B1 VL with N30D, G43A, I48M, Y50N, N53S, D92N
notes: as for B1
B3: anti-E-selectin antibody 0180 chimera (antibody, human IgG1, kappa, V domains shown)
VH: EVQLQQSGAELGKPGTSVKLSCKVSGYKIRSSYMHWVNQRPGKGLEWIGRIDPANGNTIYGDKFKSKATLTSDTSSNTAYIQLSQLKSDDTAIYFCAIDIGTTFDYWGQGVMVTVSS
VL: DIQMTQSPSFLSASVGDRVTINCKASQHINRYLNWYQQKLGEAPKLLIYDANNLQTGIPSRFSGSGSGTDFTLTISSLQPEDVATYFCLQHNSWPNTFGAGTKLELKR
notes: as for B1
B4: anti-E-selectin antibody 0164 chimera (antibody, human IgG1, kappa, V domains shown)
VH: EVQLQQSGAEFGKPGTSVKLSCKVSGYNIRSSYMHWVNQRPGKGLEWIGRIDPANGNTIYAEKFKIKAILTADSSSNTAYMQLSQLKSDDTAIYFCAMDLYSTSEYWGQGVMVTVSS
VL: B3 VL with A25T, H28N, D50N, N53S, G64A, S76N, H91D, N96L, A100S, L106I
notes: as for B1
B5: anti-E-selectin antibody 0039 chimera (antibody, human IgG1, kappa, V domains shown)
VH: QVQLKETGPGLVQPTQTLSITCTVSGFSLTGYYMQWVRQTPGKGLEWMGFIRSSGSTEYNSEFKSRLSISRDTSKNQVFLKMNSLKTEDTGVYYCARCPYKYSSFVYVGVMDAWGQGAPVTVSS
VL: EIVMTQSPTSMSTSIGERVTLNCKASQTVGINVDWYQQTPGQPPKLLIYGASNRHTGVPDRFTGSGFGRDFTLTISNVEAEDLAVYCCLQYGSIPHTFGPGTKLELKR
notes: as for B1
B6: anti-E-selectin antibody 0158 chimera (antibody, human IgG1, kappa, V domains shown)
VH: QVQLKESGPGLVQPSETLSLTCTVSGFSISTYNVHWLRQPPGKGLEWMGMMWSGGSPDYNSALKSRLSISRDTSKNQVFLKMNSLQSEDTTTYYCARWGGGFDYWGQGVMVTVSS
VL: DIVLTQSPTTLSVTPGETVSLSCRASHSIGTNLHWYQQKTNESPRLLIKFTSQSISGIPSRFSASGSGTDFTLNINNVEFDDVSSYFCQQTQSWPLTFGSGTKLEIKR
notes: as for B1
B7: humanized anti-E-selectin antibody 0841 (antibody, human IgG1, kappa, V domains shown)
VH: EVQLVESGGGLVQPGGSLRLSCAASGYNIRSSYMHWVRQAPGKGLEWVARIDPANGNTIYAEKFKIRFTISADNAKNSAYLQMNSLRAEDTAVYYCAMDLYSTSEYWGQGTLVTVSS
VL: DIQMTQSPSSLSASVGDRVTITCKTSQNINRYLNWYQQKPGKAPKLLIYNANSLQTGVPSRFSGSGSGTDFTLTISSLQPEDFATYFCLQDNSWPLTFGQGTKVEIKR
notes: effector-null human IgG1, kappa
B8: optimized anti-E-selectin antibody 1282 (antibody, human IgG1, kappa, V domains shown)
VH: B7 VH with N28A, S32A, A61V, E62D, K63S, F64V, K65E, I66G
VL: B7 VL with N30E, N50A, N52S, T56S, S93A
notes: as for B7
B9: optimized anti-E-selectin antibody 1448 (antibody, human IgG1, kappa, V domains shown)
VH: B7 VH with N28A, S32A, A61V, E62D, K63S, F64V, I66E
VL: B7 VL with N30E, N50A, N52S, T56S, S93A
notes: as for B7
B10: optimized anti-E-selectin antibody 1444 (antibody, human IgG1, kappa, V domains shown)
VH: B7 VH with N28A, S32A, A61V, E62D, K63S, F64V, K65T, I66G
VL: B7 VL with N30E, N50A, N52S, T56S, S93A
notes: as for B7
B11: optimized anti-E-selectin antibody 1284 (antibody, human IgG1, kappa, V domains shown)
VH: B7 VH with N28A, S32A, A61V, K63S, F64V, K65E, I66G
VL: B7 VL with N30E, N50A, N52S, T56S, S93A
notes: as for B7

Numbering of substitutions follows the chain as printed.

In the first experiment the target is T1, human E-selectin, cell-surface expressed (human, UniProt P16581 22-610).
T1 construct: also called CHO-human E-selectin cells; human CHO-E
T1 sequence: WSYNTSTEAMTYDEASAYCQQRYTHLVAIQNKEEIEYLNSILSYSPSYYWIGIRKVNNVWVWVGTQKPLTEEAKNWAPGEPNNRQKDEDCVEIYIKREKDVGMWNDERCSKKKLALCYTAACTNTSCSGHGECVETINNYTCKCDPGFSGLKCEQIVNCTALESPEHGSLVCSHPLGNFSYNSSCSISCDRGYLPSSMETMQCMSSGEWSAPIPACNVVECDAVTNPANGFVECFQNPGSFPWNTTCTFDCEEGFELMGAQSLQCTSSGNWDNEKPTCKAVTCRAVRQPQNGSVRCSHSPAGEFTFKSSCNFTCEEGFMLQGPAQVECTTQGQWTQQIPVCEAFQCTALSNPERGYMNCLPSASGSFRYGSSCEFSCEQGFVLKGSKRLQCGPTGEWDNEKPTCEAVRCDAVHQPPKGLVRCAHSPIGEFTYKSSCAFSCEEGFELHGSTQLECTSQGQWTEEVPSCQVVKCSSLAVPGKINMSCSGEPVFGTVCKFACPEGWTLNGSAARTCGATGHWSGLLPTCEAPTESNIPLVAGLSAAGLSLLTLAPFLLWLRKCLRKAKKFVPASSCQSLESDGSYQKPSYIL
Put plainly: competition ELISA on CHO cells vs sialyl Lewis A-PAA-biotin/SA-HRP. The protocol:
The ability of anti-E-selectin antibodies to neutralize ligand binding was assessed in a static neutralization assay using a competition enzyme-linked immunosorbent assay (ELISA) to evaluate the neutralization of the sialyl Lewis antigen to Chinese hamster ovary cells (CHO) engineered to express E-selectin.
Briefly, CHO cells expressing human E-selectin were grown in culture medium (MEM (Minimum Essential Medium) Alpha Medium, supplemented with 10% dialyzed fetal bovine serum, 100 nM methotrexate and 100 Units/mL penicillin and 100 μg/mL streptomycin) and were seeded at 12,500 cells per well into a 96 well tissue culture plate and incubated at 37° C., 5% CO₂ for 48 hours to form a confluent monolayer. Plates were subsequently washed twice with 200 μL of calcium magnesium free phosphate buffered saline (PBS). […] Plates were then washed twice with 200 μL of calcium magnesium free PBS. Following the incubation, the cells were washed twice with 200 μL of wash buffer containing 2 mM of calcium chloride (50 mM TRIS [trisaminomethane], 150 mM sodium chloride; 0.05% polysorbate 20, pH 7.4; 2 mM of calcium chloride). Signal was developed by adding 100 μL of 1-Step Ultra TMB substrate (Thermo Scientific, 34028) and incubating for 30 minutes at room temperature. Reactions were stopped using 2 M of sulfuric acid and absorbance read at 450 nm (Spectramax M5e). Data were analyzed and graphed using GraphPad Prism software (Version 8.0.2).
Background: ELISA stands for enzyme-linked immunosorbent assay.
Turning to B1, the half-maximal inhibitory concentration (IC50) (as a rule, the concentration that inhibits the measured activity by half) came out at 3.24 nM. This counts as single-digit nanomolar.

B2 had a 50% inhibitory concentration (IC50) of 2.3 nM. The IC50 values of the last two molecules are within 1.5-fold of each other.

B3 came in with an IC50 of 3.83 nM.

B4 yielded an IC50 of 2.77 nM.

Regarding B5, the IC50 is 3.76 nM. The IC50 values of the last two molecules are within 1.5-fold of each other.

Consider B6, for which the IC50 is 2.87 nM.

A further experiment deals with T2, human E-selectin extracellular domain with 10 His purification tail (human, UniProt P16581 22-556).
T2 construct: also called soluable human E-selectin extracellular domain; rhE-Selectin
T2 sequence: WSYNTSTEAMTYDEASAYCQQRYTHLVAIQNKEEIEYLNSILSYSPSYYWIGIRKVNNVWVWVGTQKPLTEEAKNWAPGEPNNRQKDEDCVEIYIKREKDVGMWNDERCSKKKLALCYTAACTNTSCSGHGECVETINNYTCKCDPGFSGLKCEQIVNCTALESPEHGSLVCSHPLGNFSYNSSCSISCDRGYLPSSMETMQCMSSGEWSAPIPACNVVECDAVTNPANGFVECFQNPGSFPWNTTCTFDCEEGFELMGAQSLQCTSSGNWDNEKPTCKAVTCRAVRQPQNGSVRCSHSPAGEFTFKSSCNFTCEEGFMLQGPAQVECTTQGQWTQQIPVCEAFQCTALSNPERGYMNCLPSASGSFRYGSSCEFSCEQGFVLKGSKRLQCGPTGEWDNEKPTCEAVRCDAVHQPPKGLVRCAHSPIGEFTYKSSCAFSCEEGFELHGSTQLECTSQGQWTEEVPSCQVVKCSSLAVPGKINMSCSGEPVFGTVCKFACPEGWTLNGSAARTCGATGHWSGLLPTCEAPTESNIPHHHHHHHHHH
As to the kind of experiment: antigen binding ELISA, HRP detection. The protocol:
384-well Maxisorp plates were used to capture the human and mouse His-tagged recombinant E-selectin polypeptides. The polypeptides were incubated with chimeric antibodies of varying concentrations and detected with HRP-labeled anti-human IgG1 antibodies.
With B1, the EC50 (commonly the concentration giving half of the maximal effect) worked out at 0.02 nM.

In turn, B2 yielded a 50% effective concentration (EC50) of 0.01 nM.

Take B3: the response was half-maximal at 0.01 nM (EC50).

B4 registered a concentration giving a half-maximal response (EC50) of 0.02 nM. Compared with the last molecule, the EC50 is about 2-fold higher.

Turning to B5, the 50% effective concentration (EC50) is 0.02 nM.

With B6, the concentration for a half-maximal effect (EC50) worked out at 0.03 nM.

The target in another experiment is T1, human E-selectin, cell-surface expressed. Put plainly: competition ELISA on CHO cells vs sialyl Lewis ligand-PAA-biotin/SA-HRP. How it is done: In a static ligand cellular adhesion assay, horse radish peroxidase (HRP) conjugated E-selectin ligand (sialyl Lewis antigen) and E-selectin antibodies compete for binding to human or cynomolgus E-selectin expressed on Chinese hamster ovary (CHO) cells. The ability of anti-E-selectin antibodies to neutralize ligand binding was assessed in a static neutralization assay using a competition enzyme-linked immunosorbent assay (ELISA) to evaluate the neutralization of the sialyl Lewis antigen to Chinese hamster ovary cells (CHO) engineered to express human or cynomolgus monkey E-selectin.
CHO cells expressing E-selectin were seeded at 12,500 cells per well into a 96 well tissue culture plate and incubated at 37° C., 5% CO₂ for 48 hours to form a confluent monolayer. Plates were subsequently washed twice with 200 μL of calcium magnesium free PBS. Anti-E-selectin antibodies or an IgG1 isotype control (IgG control) were added to the assay in the presence of a small synthetic conjugate of biotinylated, sialyl Lewis A polyacrylamide (Carbosynth LLC, OS45446) or sialyl Lewis X polyacrylamide (Glycotech, 01-045) with streptavidin/horseradish peroxidase (100 μL total) and incubated at 37° C., 5% CO₂ for 2 hours. Plates were then washed twice with 200 μL of calcium and magnesium free PBS. Following the incubation, the cells were washed twice with 200 μL of wash buffer containing 2 mM of calcium chloride (50 mM TRIS [trisaminomethane], 150 mM sodium chloride; 0.05% polysorbate 20, pH 7.4; 2 mM calcium chloride). Signal was developed by adding 100 μL of 1-Step Ultra TMB substrate (Thermo Scientific, 34028) and incubating for 30 minutes at room temperature. Reactions were stopped using 2 M of sulfuric acid and absorbance was read at 450 nm (Spectramax M5e). Data were analyzed and graphed using GraphPad Prism software (Version 8.0.2).
As for B7, the IC50 was found to be 2.56 nM.

For B8, the half-maximal inhibitory concentration (IC50) was 1.38 nM. This IC50 is about 1.9-fold lower than that of the molecule before.

Take B9: the IC50 was 2.78 nM.

Take B10: the 50% inhibitory concentration (IC50) was 2.89 nM.

The molecule B11 showed an IC50 of 2.77 nM.

For B4, the IC50 was determined as 2.69 nM.
